Columns and labels:
[1] = test system: ABCA1-mediated cholesterol efflux from mouse peritoneal macrophages; test: Cholesterol efflux to apoA-I from cholesterol-loaded macrophages; settings: 1 and 5 μM ATRA
apoCIII = settings: transcriptional level; cited from earlier work
RARγ/RXRα heterodimer [2] = target: T1, RARγ/RXRα heterodimer (Homo sapiens, UniProt P13631;P19793 P13631:1-454,P19793:1-462); test: EMSA; neither bound nor competed with ABCA1 DR4; settings: tags: TNT wheat germ; pCMX-hRARγ, pCMX-hRXRα; label: 32P
T1 sequence (P19793 whole entry, one chain of several): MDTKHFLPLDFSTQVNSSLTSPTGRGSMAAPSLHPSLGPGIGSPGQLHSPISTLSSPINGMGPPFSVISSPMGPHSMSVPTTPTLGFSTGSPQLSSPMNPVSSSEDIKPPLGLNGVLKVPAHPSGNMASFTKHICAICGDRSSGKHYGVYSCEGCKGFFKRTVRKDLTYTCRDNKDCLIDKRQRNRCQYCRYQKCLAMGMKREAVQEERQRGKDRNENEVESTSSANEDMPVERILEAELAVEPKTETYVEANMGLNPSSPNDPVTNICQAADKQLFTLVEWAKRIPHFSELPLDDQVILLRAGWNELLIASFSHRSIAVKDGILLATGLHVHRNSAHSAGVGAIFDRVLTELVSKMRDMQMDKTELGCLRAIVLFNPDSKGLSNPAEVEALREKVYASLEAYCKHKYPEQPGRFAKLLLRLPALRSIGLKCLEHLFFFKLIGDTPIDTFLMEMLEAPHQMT
Description: (§1) RARs and LXRα and RXRα proteins were in vitro translated by using the TNT-coupled wheat germ extract systems (Promega). Double-strand oligonucleotides corresponding to the wild-type ABCA1 DR4 element 5′-[…]-3′ and the mutated sequence 5′-[…]-3′ were used, and electrophoresis mobility shift assays (EMSAs) were done with ³²P-labeled probes as described previously (6). For competition experiments, a 30-fold molar excess of cold unlabeled competitor DNA relative to labeled DNA was used. […] The oligonucleotides 5′-[…]-3′ and 5′-[…]-3′ were, respectively, used in EMSA analysis of DR4 elements a and b of the murine SREBP-1c promoter.

RARβ/RXRα heterodimer [3] = target: T2, RARβ/RXRα heterodimer (Homo sapiens, UniProt P10826;P19793 P10826:1-455,P19793:1-462); test: EMSA; not shown; settings: tags: TNT wheat germ; label: 32P
T2 sequence (P19793 whole entry, one chain of several): as above
Description: as §1

RARα/RXRα heterodimer [4] = target: T3, RARα/RXRα heterodimer (Homo sapiens, UniProt P10276;P19793 P10276:1-462,P19793:1-462); test: EMSA; not shown; settings: tags: TNT wheat germ; label: 32P
T3 sequence (P19793 whole entry, one chain of several): as above
Description: as §1

RARβ/RXRα heterodimer [5] = target: T2, RARβ/RXRα heterodimer; test: EMSA; data not shown; settings: tags: TNT wheat germ; label: 32P
Description: as §1
(§2) To further assess the possibility of a direct interaction between RARγ and the human ABCA1 promoter, a gel shift assay by using oligonucleotides consisting of the DR4 element was carried out. […] It was also determined whether RARα and RARβ could bind the ABCA1 DR4 element.

RARα/RXRα heterodimer [6] = target: T3, RARα/RXRα heterodimer; test: EMSA; data not shown; settings: tags: TNT wheat germ; label: 32P
Description: as §1, §2

RARγ/RXRα heterodimer [7] = target: T1, RARγ/RXRα heterodimer; test: EMSA; supershift with anti-RXRα and anti-RARγ; competed by 30-fold cold wild-type DR4; settings: tags: TNT wheat germ; pCMX-hRARγ, pCMX-hRXRα; label: 32P
Description: as §1, §2

RARβ without RXRα = target: T4, RARβ without RXRα (Homo sapiens, UniProt P10826 P10826:1-455); test: EMSA; complex only in presence of RXRα; data not shown; settings: tags: TNT wheat germ; label: 32P
T4 sequence: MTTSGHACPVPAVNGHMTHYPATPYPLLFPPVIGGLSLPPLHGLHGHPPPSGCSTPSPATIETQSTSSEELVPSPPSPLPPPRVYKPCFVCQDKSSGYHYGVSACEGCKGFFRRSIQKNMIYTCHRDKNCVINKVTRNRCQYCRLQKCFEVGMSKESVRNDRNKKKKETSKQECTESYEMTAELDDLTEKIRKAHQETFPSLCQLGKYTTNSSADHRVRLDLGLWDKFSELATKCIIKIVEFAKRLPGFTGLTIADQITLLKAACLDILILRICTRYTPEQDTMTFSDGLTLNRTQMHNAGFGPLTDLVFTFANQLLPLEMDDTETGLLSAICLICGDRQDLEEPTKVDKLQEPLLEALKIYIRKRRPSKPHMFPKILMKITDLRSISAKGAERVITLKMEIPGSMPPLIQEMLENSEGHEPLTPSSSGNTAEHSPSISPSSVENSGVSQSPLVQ
Description: as §1, §2

RARγ without RXRα = target: T5, RARγ without RXRα (Homo sapiens, UniProt P13631 P13631:1-454); test: as above; settings: tags: TNT wheat germ; label: 32P
T5 sequence: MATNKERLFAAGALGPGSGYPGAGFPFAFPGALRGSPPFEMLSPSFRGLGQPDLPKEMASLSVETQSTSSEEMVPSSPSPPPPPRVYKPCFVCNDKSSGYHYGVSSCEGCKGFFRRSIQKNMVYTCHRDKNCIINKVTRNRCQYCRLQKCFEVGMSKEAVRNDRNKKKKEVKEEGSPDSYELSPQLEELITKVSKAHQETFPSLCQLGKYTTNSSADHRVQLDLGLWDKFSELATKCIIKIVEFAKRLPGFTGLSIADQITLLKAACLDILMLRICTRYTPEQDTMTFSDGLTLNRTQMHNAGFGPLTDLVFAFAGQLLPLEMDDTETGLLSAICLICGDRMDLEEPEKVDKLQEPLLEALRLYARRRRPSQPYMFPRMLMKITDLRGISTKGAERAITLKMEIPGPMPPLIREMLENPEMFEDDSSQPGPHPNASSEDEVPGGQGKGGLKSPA
Description: as §1, §2

RARα without RXRα = target: T6, RARα without RXRα (Homo sapiens, UniProt P10276 P10276:1-462); test: as above; settings: tags: TNT wheat germ; label: 32P
T6 sequence: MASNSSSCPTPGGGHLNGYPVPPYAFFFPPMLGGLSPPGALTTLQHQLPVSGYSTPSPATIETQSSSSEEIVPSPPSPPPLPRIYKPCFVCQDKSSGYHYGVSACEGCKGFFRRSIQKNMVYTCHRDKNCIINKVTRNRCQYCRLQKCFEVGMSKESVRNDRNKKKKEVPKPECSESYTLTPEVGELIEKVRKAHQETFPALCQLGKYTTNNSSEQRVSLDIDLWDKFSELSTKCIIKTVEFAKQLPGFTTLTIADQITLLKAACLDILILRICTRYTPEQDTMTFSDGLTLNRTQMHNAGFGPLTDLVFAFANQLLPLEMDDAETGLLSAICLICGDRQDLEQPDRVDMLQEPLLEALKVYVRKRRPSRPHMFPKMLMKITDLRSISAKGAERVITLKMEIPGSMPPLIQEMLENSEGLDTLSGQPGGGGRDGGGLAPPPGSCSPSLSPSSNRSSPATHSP
Description: as §1, §2

RARγ/RXRα heterodimer [8] = target: T1, RARγ/RXRα heterodimer; test: EMSA; neither bound nor competed with ABCA1 DR4; settings: tags: TNT wheat germ; pCMX-hRARγ, pCMX-hRXRα; label: 32P; remark: listed apart in the source

In the case of `O=S(=O)(c1ccccc1)N(CC(F)(F)F)c1ccc(C(O)(C(F)(F)F)C(F)(F)F)cc1` [TO-901317], the “increase in cholesterol efflux to apoA-I, ATRA compared with TO-901317” value [1] is reported as “comparable increase in cholesterol efflux to apoA-I”.

In the case of `CC1=C(/C=C/C(C)=C/C=C/C(C)=C\C(=O)O)C(C)(C)CCC1` [13-cRA, isotretinoin], the “hepatic apoCIII expression” value (apoCIII) is listed as “increases hepatic apoCIII expression”.

B1: SREBP-1c DR4 element a (dsDNA)
DNA 1: ACTGCAGTGACCGCCAGTAACCCCAGC
DNA 2: GCTGGGGTTACTGGCGGTCACTGCAGT
B1: no binding (RARγ/RXRα heterodimer [2]); no binding (RARβ/RXRα heterodimer [3]); no binding (RARα/RXRα heterodimer [4]).

B2: ABCA1 DR4 element (dsDNA)
DNA 1: ACTGGGCTTTGACCGATAGTAACCTCTGCGCTCG
DNA 2: CGAGCGCAGAGGTTACTATCGGTCAAAGCCCAGT
B2: binds (RARβ/RXRα heterodimer [5]); binds (RARα/RXRα heterodimer [6]); binds (RARγ/RXRα heterodimer [7]). B2: no binding (RARβ without RXRα); no binding (RARγ without RXRα); no binding (RARα without RXRα).

B3: SREBP-1c DR4 element b (dsDNA)
DNA 1: ACTGGGACGCCCGCTAGTAACCCCGGC
DNA 2: GCCGGGGTTACTAGCGGGCGTCCCAGT
B3: no binding (RARβ/RXRα heterodimer [3]); no binding (RARα/RXRα heterodimer [4]); no binding (RARγ/RXRα heterodimer [8]).
